Assay results taken from PMC7137648, “Molecular and Cellular Interactions of Scavenger Receptor SR-F1 With Complement C1q Provide Insights Into Its Role in the Clearance of Apoptotic Cells” (Frontiers in Immunology, 2020).
Substitutions are numbered along the chain they refer to. Names and notes keep the numbering of the source.

B1: SR-F1(20-353) (domain or fragment, human)
chain: SELDPKGQHVCVASSPSAELQCCAGWRQKDQECTIPICEGPDACQKDEVCVKPGLCRCKPGFFGAHCSSRCPGQYWGPDCRESCPCHPHGQCEPATGACQCQADRWGARCEFPCACGPHGRCDPATGVCHCEPGWWSSTCRRPCQCNTAAARCEQATGACVCKPGWWGRRCSFRCNCHGSPCEQDSGRCACRPGWWGPECQQQCECVRGRCSAASGECTCPPGFRGARCELPCPAGSHGVQCAHSCGRCKHNEPCSPDTGSCESCEPGWNGTQCQQPCLPGTFGESCEQQCPHCRHGEACEPDTGHCQRCDPGWLGPRCEDPCPTGTFGEDCGSLIK
modifications: N-linked glycan at Asn 289
notes: SR-F1 (SCARF1), human, EGF-like repeats 1-8; kept here by the cloning as described; The Leu-Ile-Lys and 8 His tail is printed for the parent plasmid only; not shown: His8, C-terminal, kept
B2: SR-F1(20-221) (domain or fragment, human)
chain: SELDPKGQHVCVASSPSAELQCCAGWRQKDQECTIPICEGPDACQKDEVCVKPGLCRCKPGFFGAHCSSRCPGQYWGPDCRESCPCHPHGQCEPATGACQCQADRWGARCEFPCACGPHGRCDPATGVCHCEPGWWSSTCRRPCQCNTAAARCEQATGACVCKPGWWGRRCSFRCNCHGSPCEQDSGRCACRPGWWGPECQQLIK
notes: SR-F1 (SCARF1), human, EGF-like repeats 1-5, lacks EGF-like modules 6 to 10 and the three N-glycosylation sites; construct encodes the 221 first residues, named 20-221 as secreted protein; kept here by the cloning as described; The Leu-Ile-Lys and 8 His tail is printed for the parent plasmid only; also called SR-F1(1-221); SR-F(20-221); not shown: His8, C-terminal, kept
B3: SR-F1(20-421), recombinant soluble SR-F1 ectodomain (domain or fragment, human)
chain: SELDPKGQHVCVASSPSAELQCCAGWRQKDQECTIPICEGPDACQKDEVCVKPGLCRCKPGFFGAHCSSRCPGQYWGPDCRESCPCHPHGQCEPATGACQCQADRWGARCEFPCACGPHGRCDPATGVCHCEPGWWSSTCRRPCQCNTAAARCEQATGACVCKPGWWGRRCSFRCNCHGSPCEQDSGRCACRPGWWGPECQQQCECVRGRCSAASGECTCPPGFRGARCELPCPAGSHGVQCAHSCGRCKHNEPCSPDTGSCESCEPGWNGTQCQQPCLPGTFGESCEQQCPHCRHGEACEPDTGHCQRCDPGWLGPRCEDPCPTGTFGEDCGSTCPTCVQGSCDTVTGDCVCSAGYWGPSCNASCPAGFHGNNCSVPCECPEGLCHPVSGSCQPGSGSRDTLIK
modifications: N-linked glycans at Asn 289, 382 and 393
notes: scavenger receptor class F member 1 (SR-F1, SREC-I, SCARF1), human, extracellular domain with EGF-like repeats 1-10; Mass 49.1 kDa by MALDI-TOF (polypeptide 44.0 kDa plus N-glycans); also called SR-F1 extracellular domain; not shown: His8, C-terminal, kept
B4: SR-F1(20-421) N382Q (domain or fragment, human)
chain: B3 chain with N363Q
modifications: N-linked glycans on the two remaining sites (Asn 289, Asn 393)
notes: SR-F1 (SCARF1), human, ectodomain as m1 with Asn 382 replaced by Gln; also called SR-F1 N382Q; N382Q mutant
B5: SR-F1(20-421) N393Q (domain or fragment, human)
chain: B3 chain with N374Q
modifications: N-linked glycans on the two remaining sites (Asn 289, Asn 382)
notes: SR-F1 (SCARF1), human, ectodomain as m1 with Asn 393 replaced by Gln; also called SR-F1 N393Q; N393Q mutant
B6: recombinant human calreticulin (CRT) (natural protein, UniProt P27797 18-417, looked up)
chain: EPAVYFKEQFLDGDGWTSRWIESKHKSDFGKFVLSSGKFYGDEEKDKGLQTSQDARFYALSASFEPFSNKGQTLVVQFTVKHEQNIDCGGGYVKLFPNSLDQTDMHGDSEYNIMFGPDICGPGTKKVHVIFNYKGKNVLINKDIRCKDDEFTHLYTLIVRPDNTYEVKIDNSQVESGSLEDDWDFLPPKKIKDPDASKPEDWDERAKIDDPTDSKPEDWDKPEHIPDPDAKKPEDWDEEMDGEWEPPVIQNPEYKGEWKPRQIDNPDYKGTWIHPEIDNPEYSPDPSIYAYDNFGVLGLDLWQVKSGTIFDNFLITNDEAYAEEFGNETWGVTKAAEKQMKDKQDEEQRLKEEEEDKKRKEEEEAEDKEDDEDKDEDEEDEEDKEEDEEEDVPGQAKDEL
notes: calreticulin, human, recombinant; MW = 49,431 g/mol used for quantification; In the endocytosis assay the protein was labelled with Alexa Fluor 568 succinimidyl ester; also called rCRT; AF568-rCRT

Tests used:
Conditions in all cases: both partners purified
[1] = molecular target: B6; assay: SPR; SR-F1(20-353) and SR-F1(20-221) fragments with CRT (Figure S7); which partner was immobilised is not told in the text shown
complement protein C1q [2] = molecular target: T1, complement protein C1q (human, UniProt P02745 23-245; P02746 28-253; P02747 29-245); assay: SPR; SR-F1(20-421), SR-F1(20-353) or SR-F1(20-221) injected at five increasing concentrations (multiple cycle kinetics) over covalently immobilized C1q (about 16,000 RU, CM5, amine coupling), BSA reference surface, TBS-Ca-P pH 7.4 (2 mM CaCl2), 20 μl/min, 25°C; global fit, 1:1 Langmuir model; apparent KD
T1 construct: complement C1q A-chain, human; C1q is 18 polypeptide chains assembled into 6 triple helices of A-chain, B-chain and C-chain (460 kDa); complement C1q B-chain, human; complement C1q C-chain, human; also called whole C1q; serum C1q; source: purified from human serum; copies: 6 + 6 + 6
T1 sequence (P02745 23-245, chain 1 of 3): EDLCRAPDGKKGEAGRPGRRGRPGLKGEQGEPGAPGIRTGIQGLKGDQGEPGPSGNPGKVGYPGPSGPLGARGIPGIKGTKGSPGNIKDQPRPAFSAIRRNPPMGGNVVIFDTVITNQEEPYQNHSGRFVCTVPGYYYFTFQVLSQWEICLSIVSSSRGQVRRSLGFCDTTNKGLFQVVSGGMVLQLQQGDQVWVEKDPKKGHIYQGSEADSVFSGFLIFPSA
T1 sequence (P02746 28-253, chain 2 of 3): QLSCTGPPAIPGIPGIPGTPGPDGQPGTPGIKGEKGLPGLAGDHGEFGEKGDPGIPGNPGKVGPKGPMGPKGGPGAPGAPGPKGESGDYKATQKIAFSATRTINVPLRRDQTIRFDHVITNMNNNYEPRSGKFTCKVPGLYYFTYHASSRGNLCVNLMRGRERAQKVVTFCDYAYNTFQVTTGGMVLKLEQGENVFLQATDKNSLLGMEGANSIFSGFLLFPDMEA
T1 sequence (P02747 29-245, chain 3 of 3): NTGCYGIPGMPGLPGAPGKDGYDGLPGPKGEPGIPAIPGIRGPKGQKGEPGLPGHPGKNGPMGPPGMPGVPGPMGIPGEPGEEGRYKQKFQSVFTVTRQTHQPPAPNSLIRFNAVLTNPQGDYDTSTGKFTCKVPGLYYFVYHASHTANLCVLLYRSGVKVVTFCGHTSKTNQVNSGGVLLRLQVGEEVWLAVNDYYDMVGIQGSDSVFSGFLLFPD

complement protein C1q [3] = molecular target: T1, complement protein C1q; assay: SPR; N-glycosylation site mutants of SR-F1(20-421) with C1q (Figures S5A-C), n = 2; which partner was immobilised is not told in the text shown; apparent affinity
[4] = molecular target: B3; assay: SPR; reverse configuration: soluble SR-F1(20-421) over immobilized CRT (3,320 RU); apparent KD; data not shown
[5] = molecular target: B3; assay: SPR; CRT injected at five increasing concentrations (single cycle kinetics) over covalently immobilized SR-F1(20-421) (1,845 RU) in TBS-Ca-P at 30 μl/min, 25°C; global fit, two-state reaction model; apparent KD

binding result [1]	Kd (complement protein C1q [2])	koff (complement protein C1q [2])	kon (complement protein C1q [2])	t1/2 (half-life of the complex, ln2/kd) (complement protein C1q [2])	Kd (complement protein C1q [3])	Kd [4]	Kd [5]	Binder
binds	0.0324 µM	0.00209 s⁻¹	70000 M⁻¹ s⁻¹	5.52 min	–	–	–	B1
binds	0.0177 µM	0.00303 s⁻¹	185000 M⁻¹ s⁻¹	3.82 min	–	–	–	B2
–	0.186 µM	0.00126 s⁻¹	6840 M⁻¹ s⁻¹	9.17 min	–	–	–	B3
–	–	–	–	–	0.604 µM	–	–	B4
–	–	–	–	–	0.589 ± 0.02 µM	–	–	B5
–	–	–	–	–	–	0.77 µM	0.345 ± 0.008 µM	B6
